Assay results as given in patent US20240272145A1.

Legend:
[1] = target: citrullinated histone H2A and H4 present in pre-NETs (A23187-stimulated human neutrophils) (human) (UniProt P0C0S8); experiment: flow cytometry on fixed and permeabilized leukocytes of A23187-stimulated whole blood; detection with goat-anti-human IgG-Alexa Fluor 488; negative control, same value as without antibody
[2] = target: citrullinated histone H2A and H4 present in pre-NETs (A23187-stimulated human neutrophils) (human) (UniProt P0C0S8); experiment: cell-based or functional assay
[3] = target: citrullinated histone H2A and H4 present in pre-NETs (A23187-stimulated human neutrophils) (human) (UniProt P0C0S8); experiment: flow cytometry on fixed and permeabilized leukocytes of A23187-stimulated whole blood; detection with goat-anti-human IgG-Alexa Fluor 488

| % pre-NETs (FITC+ of CD66b+ leukocytes, indicating antibody binding) [1] [%] | NET-inhibitory effect compared to No Ab at 210 min (live imaging fluorescence microscopy, A23187-stimulated neutrophils) [2] [%] | NETs after 210 min (percentage of neutrophils at t=0) [2] [%] | % pre-NETs (FITC+ of CD66b+ leukocytes, indicating antibody binding) [3] [%] | Substance |
| --- | --- | --- | --- | --- |
| 5 |  |  |  | isotype control antibody |
|  | 66 | 8 | 15 | CIT-013 (antibody) |
